Some results are limits rather than exact numbers.

In experiment [1] the target is HA-tagged TBX5 (UniProt Q99593). Put plainly: co-IP; nuclear extracts (200 ug protein) of HEK293 cells transiently overexpressing both proteins; anti-HA on Dynabeads Protein G, 2 h at RT, washed three times with PBS; blot with anti-Flag, then stripped and probed with anti-HA.
The target of experiment [2] is HA-tagged GATA4 (UniProt P43694). The description is as above.
Experiment [3] addresses HA-tagged serum response factor (SRF) (UniProt P11831). Described as above.
A further experiment addresses HA-tagged GATA6 (UniProt Q92908). The description is as above.
The target of experiment [4] is HA-tagged serum response factor (SRF) (UniProt P11831).
Experiment [5] addresses HA-tagged GATA4 (UniProt P43694).
Experiment [6] concerns the target HA-tagged GATA4 (UniProt P43694 1-442). Briefly: cell-based or functional assay.
The target in experiment [7] is T1, HA-tagged TBX5 (UniProt Q99593 1-518).
T1 sequence (looked up): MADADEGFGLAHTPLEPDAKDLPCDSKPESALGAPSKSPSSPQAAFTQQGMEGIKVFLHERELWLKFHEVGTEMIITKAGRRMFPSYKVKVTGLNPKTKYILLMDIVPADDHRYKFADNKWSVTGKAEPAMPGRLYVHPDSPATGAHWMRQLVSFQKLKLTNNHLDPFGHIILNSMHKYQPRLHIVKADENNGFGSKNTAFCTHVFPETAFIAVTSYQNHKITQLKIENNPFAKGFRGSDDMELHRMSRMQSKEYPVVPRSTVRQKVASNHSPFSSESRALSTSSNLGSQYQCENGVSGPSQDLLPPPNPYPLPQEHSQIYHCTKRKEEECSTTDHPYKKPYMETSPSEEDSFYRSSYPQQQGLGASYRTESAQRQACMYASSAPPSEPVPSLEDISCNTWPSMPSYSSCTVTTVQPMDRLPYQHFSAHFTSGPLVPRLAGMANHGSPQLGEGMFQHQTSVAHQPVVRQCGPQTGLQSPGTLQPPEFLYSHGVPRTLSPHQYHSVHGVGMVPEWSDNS
Put plainly: cell-based or functional assay.

For experiment [8], the target named is T2, HA-tagged serum response factor (SRF) (UniProt P11831 1-508).
T2 sequence (looked up): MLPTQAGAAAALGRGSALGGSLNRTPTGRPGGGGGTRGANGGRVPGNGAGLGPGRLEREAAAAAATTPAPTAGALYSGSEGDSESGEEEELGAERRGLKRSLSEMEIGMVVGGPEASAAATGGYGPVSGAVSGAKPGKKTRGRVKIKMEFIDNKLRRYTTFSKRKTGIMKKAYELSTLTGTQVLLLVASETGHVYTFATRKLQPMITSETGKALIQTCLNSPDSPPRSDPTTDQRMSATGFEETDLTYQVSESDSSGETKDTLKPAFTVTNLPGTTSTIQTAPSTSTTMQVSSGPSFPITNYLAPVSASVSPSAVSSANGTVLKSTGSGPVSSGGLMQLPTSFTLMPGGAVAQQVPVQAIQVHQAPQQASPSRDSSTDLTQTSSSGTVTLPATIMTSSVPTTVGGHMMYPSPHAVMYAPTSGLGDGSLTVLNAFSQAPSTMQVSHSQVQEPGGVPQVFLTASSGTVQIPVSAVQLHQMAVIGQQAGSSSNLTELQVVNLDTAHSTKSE
Briefly: cell-based or functional assay.

HA-tagged GATA4 (UniProt P43694), sequence (P43694 whole entry): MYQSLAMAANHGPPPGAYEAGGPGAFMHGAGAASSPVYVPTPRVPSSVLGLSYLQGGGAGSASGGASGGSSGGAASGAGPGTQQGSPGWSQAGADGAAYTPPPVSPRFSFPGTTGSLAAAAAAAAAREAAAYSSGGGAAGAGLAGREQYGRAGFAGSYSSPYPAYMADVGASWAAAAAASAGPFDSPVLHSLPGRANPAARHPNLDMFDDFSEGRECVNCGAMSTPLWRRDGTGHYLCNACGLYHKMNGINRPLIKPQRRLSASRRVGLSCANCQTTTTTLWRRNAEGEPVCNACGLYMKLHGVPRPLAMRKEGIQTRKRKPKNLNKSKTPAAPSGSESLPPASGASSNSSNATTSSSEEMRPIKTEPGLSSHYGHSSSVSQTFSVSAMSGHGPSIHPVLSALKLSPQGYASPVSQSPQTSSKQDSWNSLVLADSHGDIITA
HA-tagged GATA6, sequence (Q92908 whole entry): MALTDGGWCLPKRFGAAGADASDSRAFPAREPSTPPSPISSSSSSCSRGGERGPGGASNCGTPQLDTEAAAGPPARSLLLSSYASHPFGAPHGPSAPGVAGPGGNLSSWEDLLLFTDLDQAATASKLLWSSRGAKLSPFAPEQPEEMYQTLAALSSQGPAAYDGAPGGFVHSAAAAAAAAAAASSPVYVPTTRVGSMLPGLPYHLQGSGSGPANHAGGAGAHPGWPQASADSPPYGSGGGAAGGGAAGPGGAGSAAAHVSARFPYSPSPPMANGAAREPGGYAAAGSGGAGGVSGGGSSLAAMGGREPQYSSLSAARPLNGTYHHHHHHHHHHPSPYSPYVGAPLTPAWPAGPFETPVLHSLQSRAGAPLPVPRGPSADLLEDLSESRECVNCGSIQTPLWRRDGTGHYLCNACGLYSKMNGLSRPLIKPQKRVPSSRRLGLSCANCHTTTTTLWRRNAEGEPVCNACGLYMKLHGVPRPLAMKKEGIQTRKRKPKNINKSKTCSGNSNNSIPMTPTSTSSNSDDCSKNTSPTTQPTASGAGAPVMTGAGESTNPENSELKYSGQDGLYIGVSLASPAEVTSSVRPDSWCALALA
HA-tagged GATA4 (UniProt P43694 1-442), sequence (P43694 whole entry): as the sequence (P43694 whole entry) above

For “Flag-tagged p.E154Vfs*99 CSRP1 mutant (from UniProt P21291 1-153) (natural protein)”, in the experiment with HA-tagged TBX5 [1], the percent decrease of the co-precipitation against wild-type CSRP1 was below 55.3%. Also, the percent inhibition of the co-precipitation against wild-type CSRP1 was below 85% in the experiment with HA-tagged GATA4 [2] and 82% in experiment [3]. The percent increase of the co-precipitation against wild-type CSRP1 with HA-tagged GATA6 worked out at 15%. Besides, the percent inhibition of the synergy with SRF over the NPPA-luciferase promoter, co-transfection in HEK293 cells in [4] was 50%. Moreover, the synergy on the NPPA, VEGF and NOS3 luciferase promoters, co-transfection assays, fold activation (promoter of the number not told); synergy completely lost in the experiment with HA-tagged GATA4 [5] was determined as 5 fold.

B1: Flag-tagged wild type human CSRP1 (natural protein, UniProt P21291 1-193, looked up)
chain: MPNWGGGKKCGVCQKTVYFAEEVQCEGNSFHKSCFLCMVCKKNLDSTTVAVHGEEIYCKSCYGKKYGPKGYGYGQGAGTLSTDKGESLGIKHEEAPGHRPTTNPNASKFAQKIGGSERCPRCSQAVYAAEKVIGAGKSWHKACFRCAKCGKGLESTTLADKDGEIYCKGCYAKNFGPKGFGFGQGAGALVHSE
Regarding B1, the “synergy on the NPPA, VEGF and NOS3 luciferase promoters, co-transfection assays, fold activation (promoter of the number not told)” value in the experiment with HA-tagged GATA4 [6] was found to be 22 fold. Besides, in the experiment with HA-tagged TBX5 [7], the “synergistic activation of the NPPA, VEGF and NOS3 luciferase promoters, co-transfection in HEK293 (CSRP1 400 and 600 ng, TBX5 200 and 400 ng); highest value on the NOS3 promoter” value came out at 40 fold. Besides, in experiment [8], the “synergistic activation of the NOS3-luciferase promoter, co-transfection in HEK293 cells, fold activation” value stood at 14 fold; the “synergistic activation of the NPPA-luciferase promoter, co-transfection in HEK293 cells, fold activation” value amounted to 100 fold; the “synergistic activation of the VEGF-luciferase promoter, co-transfection in HEK293 cells, fold activation” value stood at 22.3 fold.

The values are drawn from paper PMC5741687, “A Novel Role for CSRP1 in a Lebanese Family with Congenital Cardiac Defects” (Frontiers in Genetics, 2017).
